Measured values: patent US20200024348A1 (Alector, published 2020)
Positions count from the first letter of the chain named. Numbers in names are those of the source.

T1: human Sortilin (SORT1), full-length untagged, expressed on cells (human, UniProt Q99523 78-831)
T1 sequence: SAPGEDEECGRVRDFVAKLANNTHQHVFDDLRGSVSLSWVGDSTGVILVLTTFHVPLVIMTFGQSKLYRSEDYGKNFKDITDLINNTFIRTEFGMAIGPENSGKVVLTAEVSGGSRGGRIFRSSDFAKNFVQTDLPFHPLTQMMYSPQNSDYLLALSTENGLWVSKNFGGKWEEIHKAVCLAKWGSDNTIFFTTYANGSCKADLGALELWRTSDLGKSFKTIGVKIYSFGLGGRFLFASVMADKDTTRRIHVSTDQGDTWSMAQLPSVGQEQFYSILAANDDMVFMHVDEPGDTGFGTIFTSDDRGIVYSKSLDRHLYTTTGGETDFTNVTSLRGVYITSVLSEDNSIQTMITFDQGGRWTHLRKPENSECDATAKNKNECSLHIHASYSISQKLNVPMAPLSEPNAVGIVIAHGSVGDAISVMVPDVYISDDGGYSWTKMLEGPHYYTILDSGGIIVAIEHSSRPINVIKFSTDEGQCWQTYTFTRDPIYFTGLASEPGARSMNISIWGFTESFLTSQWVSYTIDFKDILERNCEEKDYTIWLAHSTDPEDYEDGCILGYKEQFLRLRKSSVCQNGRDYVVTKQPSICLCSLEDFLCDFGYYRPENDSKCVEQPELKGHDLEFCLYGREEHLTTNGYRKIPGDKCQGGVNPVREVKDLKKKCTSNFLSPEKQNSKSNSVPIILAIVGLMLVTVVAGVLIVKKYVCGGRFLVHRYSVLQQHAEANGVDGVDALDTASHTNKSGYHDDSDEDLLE

T2: histidine-tagged human SORT1 (R&D Systems) (human, UniProt Q99523 78-755)
T2 construct: Bought recombinant protein; also called His-tagged human SORT1; not shown: histidine tag
T2 sequence: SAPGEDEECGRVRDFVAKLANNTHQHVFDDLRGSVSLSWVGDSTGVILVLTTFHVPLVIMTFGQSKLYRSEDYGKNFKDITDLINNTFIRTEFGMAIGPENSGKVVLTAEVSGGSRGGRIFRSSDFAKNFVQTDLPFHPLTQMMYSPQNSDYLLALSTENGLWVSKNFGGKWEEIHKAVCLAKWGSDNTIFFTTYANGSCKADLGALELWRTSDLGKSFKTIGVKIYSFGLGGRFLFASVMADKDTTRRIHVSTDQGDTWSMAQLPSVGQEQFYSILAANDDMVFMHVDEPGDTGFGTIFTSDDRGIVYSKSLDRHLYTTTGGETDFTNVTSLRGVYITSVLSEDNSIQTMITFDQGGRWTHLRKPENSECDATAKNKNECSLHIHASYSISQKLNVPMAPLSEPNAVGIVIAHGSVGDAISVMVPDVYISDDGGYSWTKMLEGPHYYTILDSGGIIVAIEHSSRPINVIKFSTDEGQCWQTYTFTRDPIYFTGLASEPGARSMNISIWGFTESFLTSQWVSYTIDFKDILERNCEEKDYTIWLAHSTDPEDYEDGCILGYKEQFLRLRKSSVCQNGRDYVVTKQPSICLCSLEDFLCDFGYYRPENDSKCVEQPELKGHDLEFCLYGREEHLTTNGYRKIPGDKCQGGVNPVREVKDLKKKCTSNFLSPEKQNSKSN

B1: S-60-1 (antibody, IgG1, V domains shown)
VH: QVQLQESGPGLVKPSETLSLTCAVSGYSISSVRYWGWIRQPPGKGLEWIGSIYHSGSTYYNPSLKSRVTISVDTSKNQFSLKLSSVTAADTAVYYCARQGSIKQGYYGMDVWGQGTTVTVSS
VL: not shown
notes: Tested on the huIgG1 (WT) backbone
B2: S-60-15 [N33 (wt)] huIgG1 LALAPS (antibody, V domains shown)
VH: B1 VH with V32G, R33Y, S51T
VL: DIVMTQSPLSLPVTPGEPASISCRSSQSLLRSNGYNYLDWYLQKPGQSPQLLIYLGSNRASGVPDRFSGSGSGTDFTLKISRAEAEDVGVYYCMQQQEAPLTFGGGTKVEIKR
notes: huIgG1 with L234A/L235A/P331S (LALAPS)
B3: S-60-15 (antibody, IgG1, V domains shown)
VH: B1 VH with V32G, R33Y, S51T
VL: not shown
B4: S-60-15.3 [N33G] (antibody, human IgG1, kappa, L234A L235A, V domains shown)
VH: B1 VH with V32G, R33Y, S51T
VL: DIVMTQSPLSLPVTPGEPASISCRSSQSLLRSGGYNYLDWYLQKPGQSPQLLIYLGSNRASGVPDRFSGSGSGTDFTLKISRAEAEDVGVYYCMQQQEAPLTFGGGTKVEIKR
notes: huIgG1 LALAPS
B5: S-60-15.15 [N33A] (antibody, human IgG1, kappa, L234A L235A, V domains shown)
VH: B1 VH with V32G, R33Y, S51T
VL: B4 VL with G33A
notes: huIgG1 LALAPS
B6: S-60-15.10 [N33E] (antibody, human IgG1, kappa, L234A L235A, V domains shown)
VH: B1 VH with V32G, R33Y, S51T
VL: B4 VL with G33E
notes: huIgG1 LALAPS
B7: S-60-15.8 [N33Q] (antibody, human IgG1, kappa, L234A L235A, V domains shown)
VH: B1 VH with V32G, R33Y, S51T
VL: B4 VL with G33Q
notes: huIgG1 LALAPS
B8: S-60-8 (antibody, IgG1, V domains shown)
VH: B1 VH with V32G, R33Y, S51T
VL: not shown
notes: as for B1
B9: S-60-2 (antibody, IgG1, V domains shown)
VH: B1 VH with S51A, H54P
VL: not shown
notes: as for B1
B10: S-60-15.6 [N33H] (antibody, human IgG1, kappa, L234A L235A, V domains shown)
VH: B1 VH with V32G, R33Y, S51T
VL: B4 VL with G33H
notes: huIgG1 LALAPS
B11: S-60-15.13 [N33I] (antibody, human IgG1, kappa, L234A L235A, V domains shown)
VH: B1 VH with V32G, R33Y, S51T
VL: B4 VL with G33I
notes: huIgG1 LALAPS
B12: S-60-15.12 [N33F] (antibody, human IgG1, kappa, L234A L235A, V domains shown)
VH: B1 VH with V32G, R33Y, S51T
VL: B4 VL with G33F
notes: huIgG1 LALAPS
B13: S-60-15.11 [N33W] (antibody, human IgG1, kappa, L234A L235A, V domains shown)
VH: B1 VH with V32G, R33Y, S51T
VL: B4 VL with G33W
notes: huIgG1 LALAPS
B14: S-60-15.4 [N33R] (antibody, human IgG1, kappa, L234A L235A, V domains shown)
VH: B1 VH with V32G, R33Y, S51T
VL: B4 VL with G33R
notes: huIgG1 LALAPS
B15: S-60-15.16 [N33M] (antibody, human IgG1, kappa, L234A L235A, V domains shown)
VH: B1 VH with V32G, R33Y, S51T
VL: B4 VL with G33M
notes: huIgG1 LALAPS
B16: S-60-15.7 [N33K] (antibody, human IgG1, kappa, L234A L235A, V domains shown)
VH: B1 VH with V32G, R33Y, S51T
VL: B4 VL with G33K
notes: huIgG1 LALAPS
B17: S-60-15.2 [N33S] (antibody, human IgG1, kappa, L234A L235A, V domains shown)
VH: B1 VH with V32G, R33Y, S51T
VL: B4 VL with G33S
notes: huIgG1 LALAPS
B18: S-60-15.14 [N33V] (antibody, human IgG1, kappa, L234A L235A, V domains shown)
VH: B1 VH with V32G, R33Y, S51T
VL: B4 VL with G33V
notes: huIgG1 LALAPS
B19: S-60-15.9 [N33Y] (antibody, human IgG1, kappa, L234A L235A, V domains shown)
VH: B1 VH with V32G, R33Y, S51T
VL: B4 VL with G33Y
notes: huIgG1 LALAPS
B20: S-60-7 (antibody, IgG1, V domains shown)
VH: B1 VH with V32G, R33Y, S51T
VL: not shown
notes: Tested on the huIgG1 (WT) backbone; also called S-60-5; S-60-6
B21: S-60-16 (antibody, IgG1, V domains shown)
VH: B1 VH with V32G, R33Y, S51T
VL: not shown
notes: as for B1
B22: S-60-15.17 [N33L] (antibody, human IgG1, kappa, L234A L235A, V domains shown)
VH: B1 VH with V32G, R33Y, S51T
VL: B4 VL with G33L
notes: huIgG1 LALAPS
B23: S-60-4 (antibody, IgG1, V domains shown)
VH: B1 VH with V32G, R33Y, S51T
VL: DIVMTQSPLSLPVTPGESASISCRSSQGLLRSNGYNYLDWYLQKPGQSPQLLIYLGSNRASGVPDRFSGSGSGTDFTLKISRVEAEDVGVYYCMQQQETPLTFGGGTKVEIK
notes: as for B1

Tests used:
[1] = target: T1, human Sortilin (SORT1), full-length …; assay: cell-based or functional assay
[2] = target: T1, human Sortilin (SORT1), full-length …; assay: FACS on HEK293T cells expressing human SORT1, huIgG1
Protocol: For the binding assay, stable HEK293T cells expressing human SORT1 were harvested by trypsinization, washed in PBS, counted and plated on 96-well u-bottom plates at 1×10⁵ cells/well. The plates were spun at 1,400 rpm for 3 minutes and primary anti-SORT1 or control antibodies were added in FACS buffer (PBS+2 FBS) and incubated on ice for one hour. Cells were subsequently centrifuged as before and washed thrice with FACS buffer. Cells were then incubated with anti-human APC conjugated secondary antibody (BD Biosciences) in FACS buffer for 30 minutes on ice. Cells were again washed three times with FACS buffer and analyzed on a BD FACS Canto or an Intellicyt Flow Cytometer. Binding was measured as median fluorescent intensity (MFI) in the […] channel of the GFP positive cell population.
All antibodies were tested on the huIgG1 backbone.

[3] = target: T2, histidine-tagged human SORT1 (R&D …); assay: BLI (Octet RED96), antibody captured on anti-human IgG Fc sensor, 20 nM His-tagged human SORT1, 1:1 fit
Protocol: The G1m3 or G1m(f) allotype with L234A/L235A/P331S (“LALAPS” motif) mutations was used as a background (Jefferis R and Lefranc M-P, Mabs, 2009 July-August; 1(4): 332-338). […] Bio-layer interferometry (BLI) data was collected at a rate of 5 Hz at 25° C. on a Pall ForteBio Octet RED96 instrument. Data analysis was performed using ForteBio Data Analysis Software, version 9.0. Standard kinetic buffer (PBS, 0.1 BSA, 0.02 Tween-20, pH 7.2) was used for the assay and for preparing reagents. For all assays, sensor tips were equilibrated in buffer prior to analysis.
Twenty nM histidine-tagged human SORT1 (R&D Systems, Minneapolis, Minn.) was then bound to the captured anti-SORT1 surface (200 s association time, 1200 s dissociation time). […] Full, local fitting using a 1:1 interaction model was applied to extract association and dissociation rate constants (kₐ and kd, respectively) for each N33 mutant. Affinity constants (KD) were calculated from the ratio […]. Different amino acid substitutions were made at N33 and tested for binding to SORT1 in an off-rate screen (under non-stress conditions) as shown in Table 9.

[4] = target: T1, human Sortilin (SORT1), full-length …; assay: cell-based or functional assay; remark: listed apart in the source

| Binder | DR EC50 (M): down-regulation of cell surface SORT1, U251 cells, FACS [1] | DR at 0.6 nM antibody (IgG): percent SORT1 downregulation, U251 cells [1] | Kd [2] | Kd [3] | DR at 1.25 nM antibody (IgG): percent SORT1 downregulation, U251 cells [4] | koff [3] | kon [3] |
| --- | --- | --- | --- | --- | --- | --- | --- |
| B1 | 2.73e-10 M | 50.4% | 7.22 nM | – | – | – | – |
| B2 | – | – | – | 0.27 nM | – | – | – |
| B3 | – | – | 0.56 nM | – | 60.9% | – | – |
| B4 | – | – | – | 0.825 nM | – | 0.000411 s⁻¹ | 498000 M⁻¹ s⁻¹ |
| B5 | – | – | – | 0.625 nM | – | 0.000315 s⁻¹ | 493000 M⁻¹ s⁻¹ |
| B6 | – | – | – | 2.01 nM | – | ~0.00136 s⁻¹ | 676000 M⁻¹ s⁻¹ |
| B7 | – | – | – | 0.905 nM | – | 0.000653 s⁻¹ | 609000 M⁻¹ s⁻¹ |
| B8 | 5.76e-10 M | 32% | 0.468 nM | – | – | – | – |
| B9 | 4.2e-10 M | 40.3% | 11 nM | – | – | – | – |
| B10 | – | – | – | 0.823 nM | – | 0.00046 s⁻¹ | 548000 M⁻¹ s⁻¹ |
| B11 | – | – | – | 0.46 nM | – | 0.000228 s⁻¹ | 491000 M⁻¹ s⁻¹ |
| B12 | – | – | – | 2.91 nM | – | 0.000816 s⁻¹ | 280000 M⁻¹ s⁻¹ |
| B13 | – | – | – | 0.96 nM | – | 0.000579 s⁻¹ | 601000 M⁻¹ s⁻¹ |
| B14 | – | – | – | 0.88 nM | – | 0.00046 s⁻¹ | 524000 M⁻¹ s⁻¹ |
| B15 | – | – | – | 0.85 nM | – | 0.000423 s⁻¹ | 495000 M⁻¹ s⁻¹ |
| B16 | – | – | – | 0.965 nM | – | 0.000547 s⁻¹ | 563000 M⁻¹ s⁻¹ |
| B17 | – | – | – | 0.44 nM | – | 0.000247 s⁻¹ | 563000 M⁻¹ s⁻¹ |
| B18 | – | – | – | 0.69 nM | – | 0.000306 s⁻¹ | 445000 M⁻¹ s⁻¹ |
| B19 | – | – | – | 1.28 nM | – | 0.000675 s⁻¹ | 511000 M⁻¹ s⁻¹ |
| B20 | 4.47e-10 M | 32.6% | 0.787 nM | – | – | – | – |
| B21 | – | – | 0.78 nM | – | 70.1% | – | – |
| B22 | – | – | – | 1.03 nM | – | 0.000425 s⁻¹ | 412000 M⁻¹ s⁻¹ |
| B23 | 4.18e-10 M | 39.6% | 0.634 nM | – | – | – | – |
